Experimental data as given in patent publication US20120027782A1 (Bristol-Myers Squibb, published 2012).

Legend:
[1] = molecular target: T1, human PTK7, full length, on the cell surface (human, UniProt Q13308 31-1070); assay: cell-based or functional assay
T1 sequence: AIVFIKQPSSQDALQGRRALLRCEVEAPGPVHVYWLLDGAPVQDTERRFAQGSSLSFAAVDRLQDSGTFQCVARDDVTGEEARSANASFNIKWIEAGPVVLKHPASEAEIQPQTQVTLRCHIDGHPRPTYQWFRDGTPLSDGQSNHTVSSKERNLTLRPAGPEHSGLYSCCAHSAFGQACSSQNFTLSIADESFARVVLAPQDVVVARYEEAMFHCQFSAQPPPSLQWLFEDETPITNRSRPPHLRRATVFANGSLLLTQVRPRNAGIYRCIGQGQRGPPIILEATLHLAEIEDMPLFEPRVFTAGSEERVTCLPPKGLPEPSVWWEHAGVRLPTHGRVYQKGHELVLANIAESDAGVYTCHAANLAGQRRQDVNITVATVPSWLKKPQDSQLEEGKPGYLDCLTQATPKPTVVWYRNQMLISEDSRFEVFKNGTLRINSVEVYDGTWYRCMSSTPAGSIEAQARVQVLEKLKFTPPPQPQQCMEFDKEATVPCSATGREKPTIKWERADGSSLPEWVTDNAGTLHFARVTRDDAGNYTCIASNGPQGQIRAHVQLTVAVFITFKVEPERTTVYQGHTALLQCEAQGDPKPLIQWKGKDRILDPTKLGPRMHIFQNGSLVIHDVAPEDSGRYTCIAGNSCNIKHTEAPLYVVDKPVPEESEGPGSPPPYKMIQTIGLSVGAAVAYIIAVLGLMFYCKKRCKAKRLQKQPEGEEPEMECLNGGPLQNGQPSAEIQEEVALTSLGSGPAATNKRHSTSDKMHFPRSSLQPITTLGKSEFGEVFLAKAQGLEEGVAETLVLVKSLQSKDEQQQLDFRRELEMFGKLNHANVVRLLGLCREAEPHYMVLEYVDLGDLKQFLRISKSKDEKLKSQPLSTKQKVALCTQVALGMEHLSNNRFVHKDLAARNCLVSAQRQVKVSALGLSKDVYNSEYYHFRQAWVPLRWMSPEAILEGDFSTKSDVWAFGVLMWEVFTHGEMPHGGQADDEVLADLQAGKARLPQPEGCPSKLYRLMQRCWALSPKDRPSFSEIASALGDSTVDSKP

[2] = molecular target: T1, human PTK7, full length, on the cell …; assay: flow cytometry (MFI) on Wilms' tumor cell line G-401
Description: The nephroblastoma Wilms' tumor cell line G-401 (ATCC Acc No. CRL-1441) was tested for binding of the HuMAb anti-PTK7 human monoclonal antibodies 12C6 and 7C8 at different concentrations. Binding of the anti-PTK7 human monoclonal antibodies was assessed by incubating 1×10⁵ cells with antibody at a starting concentration of 30 μg/ml and serially diluting the antibody at a 1:10 dilution. The cells were washed and binding was detected with a PE-labeled anti-human IgG Ab. Flow cytometric analyses were performed using a FACScan flow cytometry (Becton Dickinson, San Jose, Calif.). The anti-PTK7 monoclonal antibodies 12C6 and 7C8 bound to the nephroblastoma Wilms' tumor cell line in a concentration dependent manner, as measured by the mean fluorescent intensity (MFI) of staining. The EC₅₀ values for the anti-PTK7 monoclonal antibodies 12C6 and 7C8 was 4.0 nM and 3.4 nM, respectively.

[3] = molecular target: T2, recombinant extracellular domain of PTK7 (human, UniProt Q13308 31-704); assay: ELISA (legend of FIG. 15; members named in paragraph 547)
T2 construct: also called PTK7 extracellular domain
T2 sequence: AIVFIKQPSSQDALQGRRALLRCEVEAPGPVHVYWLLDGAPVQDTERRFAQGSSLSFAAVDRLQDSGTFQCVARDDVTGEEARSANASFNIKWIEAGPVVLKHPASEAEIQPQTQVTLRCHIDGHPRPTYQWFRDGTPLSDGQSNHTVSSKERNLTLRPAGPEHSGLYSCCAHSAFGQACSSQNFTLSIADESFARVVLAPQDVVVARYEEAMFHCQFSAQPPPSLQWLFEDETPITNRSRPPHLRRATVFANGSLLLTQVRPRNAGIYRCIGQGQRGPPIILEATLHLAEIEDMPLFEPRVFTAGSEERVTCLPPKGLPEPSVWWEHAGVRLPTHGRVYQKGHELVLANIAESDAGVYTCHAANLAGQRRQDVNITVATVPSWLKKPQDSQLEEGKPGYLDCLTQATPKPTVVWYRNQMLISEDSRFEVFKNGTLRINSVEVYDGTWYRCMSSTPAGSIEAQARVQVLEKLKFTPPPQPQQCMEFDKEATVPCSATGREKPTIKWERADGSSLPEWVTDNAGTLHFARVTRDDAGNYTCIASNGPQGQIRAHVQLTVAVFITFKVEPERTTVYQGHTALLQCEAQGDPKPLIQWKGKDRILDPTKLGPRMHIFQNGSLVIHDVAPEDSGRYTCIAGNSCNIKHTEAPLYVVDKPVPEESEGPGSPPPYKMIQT
Description: The binding of anti-PTK7 antibodies was also assessed by standard ELISA to examine the specificity of binding for PTK7.
Recombinant extracellular domain of PTK7 was tested for binding against the anti-PTK7 human monoclonal antibodies 3G8, 4D5, 12C6 and 12C6a at different concentrations. Standard ELISA procedures were performed. The anti-PTK7 human monoclonal antibodies were added at a starting concentration of 10 μg/ml and serially diluted at a 1:2 dilution. Goat-anti-human IgG (kappa chain-specific) polyclonal antibody conjugated with horseradish peroxidase (HRP) was used as secondary antibody. Each of the anti-PTK7 human monoclonal antibodies 3G8, 4D5, 12C6 and 12C6a bound to PTK7.

[4] = molecular target: T1, human PTK7, full length, on the cell …; assay: flow cytometry (MFI) on cancer cell lines that express cell surface PTK7, antibody at 10 ug/ml
Description: Anti-PTK7 antibodies were tested for binding to a variety of cancer cell lines by flow cytometry.
Binding of the 3G8, 12C6a, 4D5 and 12C6 anti-PTK7 human monoclonal antibodies to a panel of cancer cell lines was assessed by incubating cancer cell lines with anti-PTK7 human monoclonal antibodies at a concentration of 10 μg/ml. The cancer cell lines that were tested were A-431 (ATCC Acc No. CRL-1555), Wilms tumor cells G-401 (ATCC Acc No. CRL-1441), Saos-2 (ATCC Acc No. HTB-85), SKOV-3 (ATCC Acc No. HTB-77), PC3 (ATCC Acc No. CRL-1435), DMS 114 (ATCC Acc No. CRL-2066), ACHN (ATCC Ace No. CRL-1611), LNCaP (ATCC Acc No. CRL-1740), DU 145 (ATCC Acc No. HTB-81), LoVo (ATCC Acc No. CCL-229) and MIA PaCa-2 (ATCC Acc No. CRL-1420). An isotype control antibody was used as a negative control. The cells were washed and binding was detected with a FITC-labeled anti-human IgG Ab. Flow cytometric analyses were performed using a FACScan flow cytometry (Becton Dickinson, San Jose, Calif.). The anti-PTK7 monoclonal antibodies 3G8, 12C6a, 4D5 and 12C6 bound to the cancer cell lines A-431, Wilms tumor cells G-401, Saos-2, SKOV-3, PC3, DMS 114, ACHN, LNCaP, DU 145, LoVo and MIA PaCa-2, as measured by the mean fluorescent intensity (MFI) of staining.

B1: anti-PTK7 human monoclonal antibody 7C8 (antibody, V domains shown)
VH: QVQLVESGGGVVQPGRSLRLSCAASGFTFSSYGMHWVRQAPGKGLEWVAVIWDDGSNKYYVDSVKGRFTISRDNSKNTLYLQMNSLRAEDTAVYYCARDDYYGSGSFNSYYGTDVWGQGTTVTVSS
VL: EIVLTQSPATLSLSPGERATLSCRASQSVSIYLAWYQQKPGQAPRLLIYDASNRATGIPARFSGSGSGTDFTLTISSLEPEDFAVYYCQQRSNWPPFTFGPGTKVDIK
notes: Human IgG kappa from a hybridoma
[1]
  EC50 of the decrease in 3H-thymidine incorporation, Hum-Zap internalization assay, A-431 cells: 0.2 nM
  EC50 of the decrease in 3H-thymidine incorporation, Hum-Zap internalization assay, PC3 tumor cells: 0.3 nM
  EC50 of the decrease in 3H-thymidine incorporation, Hum-Zap internalization assay, Wilms' tumor cells G-401: 0.2 nM
[2]
  EC50: 3.4 nM

B2: anti-PTK7 human monoclonal antibody 4D5 (antibody, V domains shown)
VH: QVQLVESGGGVVQPGRSLRLSCAASGFTFSSYAFHWVRQAPGKGLEWVAVISYDGSIKYYADSVKGRFTISRDNSKNTLYLQMNSLRAEDTAVYYCARTYYFDYWGQGTLVTVSS
VL: EIVLTQSPDFQSVTPKEKVTITCRASQSIGSSLHWYQQKPDQSPKLLIKYASQSFSGVPSRFSGSGSGTDFTLTINSLEAEDAAAYYCHQSSSLPITFGQGTRLEIK
[1]
  EC50 of the decrease in 3H-thymidine incorporation, Hum-Zap internalization assay, Wilms' tumor cells G-401: 0.3 nM

B3: anti-PTK7 human monoclonal antibody 12C6 (antibody, V domains shown)
VH: EVQLVQSGGGLVHPGGSLRLSCAGSGFTFSTYLMYWVRQAPGKTLEWVSAIGSGGDTYYADSVKGRFTISRDNAKNSLYLQMNSLRAEDMAVYYCARGLGYWGQGTLVTVSS
VL: not shown
notes: as for B1
[1]
  EC50 of the decrease in 3H-thymidine incorporation, Hum-Zap internalization assay, A-431 cells: 0.2 nM
  EC50 of the decrease in 3H-thymidine incorporation, Hum-Zap internalization assay, PC3 tumor cells: 0.3 nM
  EC50 of the decrease in 3H-thymidine incorporation, Hum-Zap internalization assay, Wilms' tumor cells G-401: 0.2 nM
[2]
  EC50: 4 nM

B4: anti-PTK7 human monoclonal antibody 3G8 (antibody, V domains shown)
VH: QVQLVESGGGVVQPGRSLRLSCAASGFIFSNYAMHWVRQAPGKGLEWVAVISYDGNNKYYADSVKGRFTISRDNSKNTLYLQMNSLRAEDTAVYYCAREVWSIDNWGQGTLVTVSS
VL: DIQMTQSPSSLSASVGDRVTITCRASQGISSWLAWYQQKPEKAPKSLIYAASSLQSGVPSRFSGSGSGTDFTLTISSLQPEDFATYYCQQYNSYPRTFGQGTKVEIK
[1]
  EC50 of the decrease in 3H-thymidine incorporation, Hum-Zap internalization assay, Wilms' tumor cells G-401: 0.6 nM

B5: anti-PTK7 human monoclonal antibody 12C6a (antibody, V domains shown)
VH: EVQLVQSGGGLVHPGGSLRLSCAGSGFTFSTYLMYWVRQAPGKTLEWVSAIGSGGDTYYADSVKGRFTISRDNAKNSLYLQMNSLRAEDMAVYYCARGLGYWGQGTLVTVSS
VL: DIQMTQSPSSLSASVGDRVTITCRASQGISSWLAWYQQKPEKAPKSLIYAASSLQSGVPSRFSGSGSGTDFTLTISSLQPEDFATYYCQQYNSYPYTFGQGTKLEIK
notes: Same heavy chain variable region as 12C6, different light chain; Human IgG kappa from a hybridoma
[3]
  binding result: binds
[4]
  binding result: binds
